# Molecular target: PM20D1-flag (epitope-tagged, AAV serotype 8) (mouse) (UniProt Q8C165)
# Assay: SEC
# Sequence of UniProt Q8C165 (Q8C165 25-503): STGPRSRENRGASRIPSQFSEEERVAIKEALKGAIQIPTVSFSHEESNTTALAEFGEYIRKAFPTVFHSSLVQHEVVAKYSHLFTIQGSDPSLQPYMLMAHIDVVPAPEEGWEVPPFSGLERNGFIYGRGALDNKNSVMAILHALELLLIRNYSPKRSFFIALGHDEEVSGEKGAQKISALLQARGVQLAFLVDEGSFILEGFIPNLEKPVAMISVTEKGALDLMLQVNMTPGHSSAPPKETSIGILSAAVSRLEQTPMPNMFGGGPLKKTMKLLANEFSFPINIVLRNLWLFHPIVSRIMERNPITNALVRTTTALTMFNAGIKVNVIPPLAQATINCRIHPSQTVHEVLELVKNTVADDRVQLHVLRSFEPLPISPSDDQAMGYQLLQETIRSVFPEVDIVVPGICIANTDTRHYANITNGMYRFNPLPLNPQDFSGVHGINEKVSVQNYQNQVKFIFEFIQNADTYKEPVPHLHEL
substance,measurement,value
APOB (APOB-containing low-density lipoproteins of mouse plasma) (natural protein),percent of total anti-flag band intensity in APOB+ fractions,91%

# — article PMC7502524
